Laboratory results reported in paper PMC12361444.

Molecular target: HAdV-C5 hexon protein (human adenovirus C5) (UniProt P04133)
Chain of UniProt P04133 (P04133 whole entry): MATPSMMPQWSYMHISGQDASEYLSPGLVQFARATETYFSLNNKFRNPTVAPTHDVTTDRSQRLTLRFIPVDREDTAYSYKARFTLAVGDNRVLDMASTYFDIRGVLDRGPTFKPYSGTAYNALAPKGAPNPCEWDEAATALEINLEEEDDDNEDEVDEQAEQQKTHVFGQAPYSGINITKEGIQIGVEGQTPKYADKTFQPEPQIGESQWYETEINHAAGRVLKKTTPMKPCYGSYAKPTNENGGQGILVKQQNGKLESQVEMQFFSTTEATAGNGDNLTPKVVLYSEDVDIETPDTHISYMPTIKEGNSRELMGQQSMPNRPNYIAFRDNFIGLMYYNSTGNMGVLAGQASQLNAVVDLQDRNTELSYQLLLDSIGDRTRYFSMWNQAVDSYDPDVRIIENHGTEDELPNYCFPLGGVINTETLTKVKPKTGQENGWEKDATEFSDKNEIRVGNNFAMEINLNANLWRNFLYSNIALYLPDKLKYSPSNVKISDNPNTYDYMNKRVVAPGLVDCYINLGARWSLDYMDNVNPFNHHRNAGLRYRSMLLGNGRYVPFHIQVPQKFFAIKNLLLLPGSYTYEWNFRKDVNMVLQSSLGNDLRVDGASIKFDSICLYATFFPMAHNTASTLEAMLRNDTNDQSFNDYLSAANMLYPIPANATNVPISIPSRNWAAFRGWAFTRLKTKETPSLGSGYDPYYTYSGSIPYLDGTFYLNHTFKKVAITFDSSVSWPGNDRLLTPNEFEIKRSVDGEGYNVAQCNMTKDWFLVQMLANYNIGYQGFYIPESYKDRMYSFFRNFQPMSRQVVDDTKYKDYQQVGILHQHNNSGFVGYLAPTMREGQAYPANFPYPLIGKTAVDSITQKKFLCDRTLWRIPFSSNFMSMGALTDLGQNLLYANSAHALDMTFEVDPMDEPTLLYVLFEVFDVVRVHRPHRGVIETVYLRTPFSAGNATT

Human lactoferricin 1-49 (peptide) gave a qPCR of cell-bound HAdV-C5 genomes on myoblasts (5000 vp/cell, 2 µM Lfcin, on ice 30 min), with versus without Lfcin of 20 fold.
